test: yeast display, Sf9 membrane polyspecificity reagent, FACS + sequencing; frameworks hold sequencing errors
Method in brief: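 A nanobody's polyreactivity label depends on the gate it was sorted from. Yeast display cells were stained with 10% biotinylated, detergent-solubilized Sf9 membrane reagent for 1 hour at 4 °C, enriched on streptavidin microbeads and sorted by FACS. The low and high (top ~1%) gates were set on anti-HA fluorescence for expression and streptavidin fluorescence for reagent binding.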

Sequence | polyreactivity (PSR sort gate)
QVQLVESGGGLVQAGGSLRLSCAASGRIFGTYAMGWYRQAPGKERELVASISYSDGSTYADSVKGRFTISRDNAKNTVYLQMNSLKPEDTAVYYCAADVYYYAQSEDGYWGQGTQVTVSS | low polyreactivity
QVQRVESGGGLVHAAGSRRLSCAASGSIFWPYAMGWYRLAPGKEREFVAPISSSGSRTHYADSVKGRFTISRDTAKNTVYLQMNSLKPEDTAVYYCATDSRVITWYGGVEFDYWGQGTQVTVSS | low polyreactivity
QLQHVESGAVLVQAAGSLRLICAASGLIFPYNAMGWSRQAPGKERELVAAIDTRASSTYYADSVKGRFTISRDNAKNSVYLQMNSLKPEDTAVYYCATRRWGRRKGVGYWGQGTQVTVSS | high polyreactivity
QDQHVESGGGLVQAGCSLRLSCAASGSIFSWNAMGWYRQAPGKERELVAAIRWDTGSTYYADSVKVRFTISRDKAKNTVYLQMNRLKPEDTAVYYCAADLFDCQLIDGFAVVTYGYWGQGTQVTVSS | low polyreactivity
HVQLVESGVGLVQAAGILRLSCAASGRTFSVYVMGWYRQATGKERELVAAISTSGARTYYADSVKGRFTISRDHAKNTVFLQMNSLKPEATAVYYCGARAIYKSKYDYWGHGTQVTVSS | high polyreactivity
QVQLVESGGGLVQAGGSLRLSCAASGFIIYLYAMGWSRQAPGKERELLAAISRGGGTTYYADSVKGRFTISRDYAQNTVYLQMNSLKPEDTAVYYCAAETEYYSYRFDYWGQGTQVSVSS | high polyreactivity
QVHLVESGGGLVQAGGSLRLSCAASGRIFGYYAMGWYRQAPGKERELVAAISYSTGGTSTYADSVKGRFTISRDNAKNTVYLQMNSLKPEDTAVYYCAVRRQYRRAYSFSQSRYDYWGQGTQVTVSS | high polyreactivity
QVQLVESGGGLVQAGGSLRLSCAASGSTFRSNAMGWYRQAPGKESELVAAITRRGSTYYADSVKGRFTISRDNAKNTVYLQMNSVKPEDTAVYYCAARVPGYASGASGYSSYRYEYWGQGTQVTVSS | high polyreactivity
QVQLVESGGGLVQAGGSLRLSCASSGSIFYDNAMGWYRQAPGKDRELVAAITVTGGSTYYADSVKGRFTISRDNAKNTVYLQMNSLKPEDTAVFYCAADPDYFDYWGQGTQVTVSS | low polyreactivity
QVQLVESGGGLVQAGGSLRLSCAASGYTFQYNDMGWYRQAPGKERELVAGISIGGSTNYADSVKGRFTISRDNAKNTVYLQMNSLKPEDTAVYYCAARTLWFPGTTSTSVGYKYGYWGQGTQVTVSS | low polyreactivity
QVQLVESGGGLVQAGGSLRLSSAASGRISDFYTMGWYRQAPGKERELVAVIRTSGGRTNYADSVKGRFTISRDNAKNTVYLQMNSLKPEDTAVYYCAARVVRYGYKYYYWGQGTQVTVSS | low polyreactivity
QVQLVESGGGLVQAGGSLRLSCAASGSTFEDNTMGWYRQAPGKERELVAAISNSGGSTYYADSVKGRFTISRDNAKNTVYLQMNSLKPEDTAVYYCAADFYDPFDYWGQGTQVTVSS | low polyreactivity
QVQLVESGGGLVQAGGSLRLSCAASGGTFFAYAMGWYRQAPGERELVAAISWSGDSTYYADSVKGRFTISRDNAKNTVYLQMNSLKPEDTAVYYCAADYGFEYYYWGQGTQVTVSS | high polyreactivity
QVHLVESGGGLVLAGGSLRLSCAASGSTFGINAMGWYRQAPGKEREFVASISWSTGTTYYADSVKGRFTISRDNAKNTVYLQMNSLKPEDTAVYSCAAVDYYWGYEQWYDYWGQGTQVTVSS | high polyreactivity
QVQLVQSCGCLVQAGGSLRLSCAASGRIFYGNDMGWNRQAPGKERDLVAAISSGTSTNYADSVKGRFTISRDNAMNTVYLQMNSLKPEVTAVYYWAAGSYSRYLYSLYFDFDYWGQGSQVTVSS | low polyreactivity
RVQLVQSGGGLVQAGGSLRLSCAASGRIFSYNAMGWYRQAPGKERELVAAITFSGGGTYYADSVKGRFTISRDNAKNTVYLQMNSLIPEDTAVYYCNKVSYGYSTYGYWGQGTQVTVSS | low polyreactivity
QVQLVESGGGLVQAGGSLRLSCAASGSIFDYNAMGWYRQAPGKERELVASISGDSGSTYYADSVKGRFTISRDNAKNTDYLQMNSLKPEDTAVYYCAAPYVSWDYRYYYWGQGTQVTLSS | low polyreactivity
QVQLVESGGGLVQAGGSLRLSCAASGITFVRNAMGWYRQAPGKEREFVAAISWSGGSTYYADSVKGRFTISRDNAKNTVYLQMNSLKPEDTAVYYCAAAYPRVTYKYGYYWGQGTQVTVSS | high polyreactivity
QVQLVESGGGLVQAGGSLRLSCAASGSTFPYNAMGWYRQAPGKERELVAAITSSGRTNYADSVKGRFTISRDNAKNTDYLQMNSLKPEDTAVYYCAAVRWYAHRVDYWGQGTQVTVSS | low polyreactivity
QVQLVESGGGLVQAGGSLRLSCAASGSISKINAMGWYRQAPWKERELVAAINTGDSTYYADSVKGRFTISRDNAKNTVYLLMNSLKPEDTAVYYCAAECSPTGYDYWGQGTQVTVSS | low polyreactivity
QVKLVESGGGLVQAVGSLRLSCAPSGFTLGSYAMGCYRQAPGKESELVAAITYSGSRTYYADSVKGRFTISRDNAKNTVYLQMNSLKPEDTAVYYCAAVTHYGFDYWGQGTQVTVSS | high polyreactivity
QVQLVESGGGLVQAGGSLRLSCAASGRTFSGYAMGWYRQAPGKERELVAAITSSGSSTYYADSVKGRFTISRDKAKNTVYLQMNCLKPEDTAVYYCAATPQAHSERYYSQRKYDYWGQGTQVTVSS | low polyreactivity
QVQLVESGGGLVQAGASLRLSCAASGGILRQNTMGWYRQAPGKERELVAAISSSGGRTYYADSVKGRFTISRDNAKNTVYLQMNSLKPEDTAVYYCNVPAKRYPYYIRQSTVSPGNYWGQGTKVTVSS | high polyreactivity
QVQLGESGGSLVQAGASLRLSCAASAITFYGNAMGWYRQAPGKERELVAAIRRGGSTNYADSVKGRFTISRDNAKKTVYLQMNSLKPEDTAVYYCAADSYGYTFRNYRVGYWGHGTQVTVSS | high polyreactivity
QVQLVESGGGLVQAGGSLRLSCAASVRTFDSYTMGWYRPAPGKERELVAAIRSSGGRTYADSVKGRFTISRDNAKNTVYLQMNSLKPEDTAVYYCAAARSYWAKYYYWGQGTQVTVSS | high polyreactivity
QVQLVESGGGLVQAGGSLRLSCAASGSTLYKYAMGWYRQAPGKERELVATITRTDSTNYADSVKGRFTISRDNAKNTVYLQMNSLKPEDTAVYYCNRGFDWWYRYRHYDYWGQGTQVTVSS | low polyreactivity
QVQLVESGVGLVQAGGTLRLSCAASGFTFVRYAMAWYRQAPGKEREFVASISARGCNTFYADSVKGRFTISRDNAKNTVYLQMNSLKPEDTAVYYCAKRGPYGTGYGYWGQGTQVTVSS | high polyreactivity
QVQLVESGGVLVQAGGSLRLSCAASGYIFQTYAMGWYRPAPGKEREFVAAISFIGSSTRYADSVKGRFTISRDNAKNTVYLQMNSLKPEDTAVYYCNNDTITSTWTPYTSWFGYWGQGTQVTVSS | high polyreactivity
QDHLVESGGGLVQAGGSLRLSCAASGSTFGWYAMGWYRHAPGKERELVAVITRGGSTYYADSVKGHFTITLDNAKNTVYLQMNSLKPEDTAVYFCAARYRLPPYYYWGHGTQVTVSS | high polyreactivity
QVQLVESGGGLVQAGGSLRLSCAASGSTSKYYAMGWYRQAPGKERELVAAITWSDVSTYYADSVKGRFTISRDNAKNTVYLQMNSLKPEDTAVYYCNAGYDYWGQGTQVTVSS | low polyreactivity

Reference: the nanobody polyreactivity screen of Harvey et al. (2022)
